This data set addresses T1, LrhCas9-NLS (Lactobacillus rhamnosus).
T1 chain: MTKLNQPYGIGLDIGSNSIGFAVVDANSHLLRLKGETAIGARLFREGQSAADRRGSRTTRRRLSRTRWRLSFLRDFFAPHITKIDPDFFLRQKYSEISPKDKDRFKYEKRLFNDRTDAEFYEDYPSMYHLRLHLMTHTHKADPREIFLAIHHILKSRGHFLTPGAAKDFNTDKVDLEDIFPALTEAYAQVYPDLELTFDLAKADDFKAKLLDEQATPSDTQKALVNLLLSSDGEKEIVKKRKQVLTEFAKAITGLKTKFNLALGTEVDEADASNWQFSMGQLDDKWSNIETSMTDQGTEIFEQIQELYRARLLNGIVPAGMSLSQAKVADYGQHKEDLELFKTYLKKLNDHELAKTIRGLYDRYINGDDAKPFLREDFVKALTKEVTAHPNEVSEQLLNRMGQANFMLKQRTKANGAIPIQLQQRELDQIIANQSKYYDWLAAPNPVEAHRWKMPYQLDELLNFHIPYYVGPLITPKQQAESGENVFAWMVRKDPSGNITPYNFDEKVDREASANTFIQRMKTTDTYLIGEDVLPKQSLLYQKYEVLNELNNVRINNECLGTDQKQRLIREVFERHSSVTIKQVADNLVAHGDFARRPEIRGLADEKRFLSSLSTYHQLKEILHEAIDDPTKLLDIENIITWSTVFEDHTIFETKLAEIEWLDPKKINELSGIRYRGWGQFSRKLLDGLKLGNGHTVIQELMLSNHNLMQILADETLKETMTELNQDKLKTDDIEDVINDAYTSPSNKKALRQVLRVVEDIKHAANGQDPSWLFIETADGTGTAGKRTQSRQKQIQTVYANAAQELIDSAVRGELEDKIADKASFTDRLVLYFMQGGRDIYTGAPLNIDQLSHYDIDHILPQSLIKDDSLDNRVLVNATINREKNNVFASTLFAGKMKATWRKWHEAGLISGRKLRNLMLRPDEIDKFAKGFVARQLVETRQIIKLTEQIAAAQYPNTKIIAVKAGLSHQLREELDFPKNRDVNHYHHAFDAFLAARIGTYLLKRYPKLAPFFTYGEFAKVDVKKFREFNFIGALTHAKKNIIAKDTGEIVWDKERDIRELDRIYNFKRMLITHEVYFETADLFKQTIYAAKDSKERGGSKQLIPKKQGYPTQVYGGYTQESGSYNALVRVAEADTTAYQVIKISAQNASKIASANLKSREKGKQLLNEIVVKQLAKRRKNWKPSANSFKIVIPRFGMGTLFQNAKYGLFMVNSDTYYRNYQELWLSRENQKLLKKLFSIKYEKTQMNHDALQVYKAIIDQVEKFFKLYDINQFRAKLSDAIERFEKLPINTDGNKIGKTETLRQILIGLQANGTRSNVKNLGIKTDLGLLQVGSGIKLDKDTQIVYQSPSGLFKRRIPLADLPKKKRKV
Put plainly: cell_activity; PAM NGAAA; K562. Conditions: tags: C-terminal SV40 NLS.

B1: Lrh POR target 1 sgRNA ; POR target 1 (ssRNA ; dsDNA)
RNA: GCUCGUACUGGCGAAUGCUGUCUCAGGUAGAUGUCAGAUCAAUCAGAAAUGAUUGAUCUGACAUCUACGAGUUGAGAUCAAACAAAGCUUCAGCUGAGUUUCAAUUUCUGAGCCCAUGUUGGGCCAUACAUAUGCCACCCGAGUGCAAAUCGGGUGGCUUUUUUU
DNA 1: GCTCGTACTGGCGAATGCTGGAAA
DNA 2: TTTCCAGCATTCGCCAGTACGAGC
B1 had an activity of 26.7 % indel.

B2: Lrh CAR target 2 sgRNA ; CAR target 2 (ssRNA ; dsDNA)
RNA: GUGAGAGUCUCCUCCCCAAUGGUCUCAGGUAGAUGUCAGAUCAAUCAGAAAUGAUUGAUCUGACAUCUACGAGUUGAGAUCAAACAAAGCUUCAGCUGAGUUUCAAUUUCUGAGCCCAUGUUGGGCCAUACAUAUGCCACCCGAGUGCAAAUCGGGUGGCUUUUUUU
DNA 1: GTGAGAGTCTCCTCCCCAATGGGAAA
DNA 2: TTTCCCATTGGGGAGGAGACTCTCAC
In turn, B2 registered an activity of 27 % indel.

The values are drawn from patent US12297449, “Engineered CAS9 systems for eukaryotic genome modification” (Sigma-Aldrich Co. LLC).
